Target: SARS-CoV-2 S protein of the B.1 (D614G) variant, on pseudotyped lentiviral particles (SARS-CoV-2)
Assay: cell-based or functional assay

Binder | IC50 (nM), pseudotyped virus infection [nM] | IC50 (nM), pseudovirus neutralization, luciferase in 293T/hACE2 cells [nM]
RD3 (antibody, V domains shown) VH: EVQLLESGGGLVQPGGSLRLSCAASGFTFSDYAMSWVRQAPGKGLEWVSWIYSGSGNKYYADSVKGRFTISRDNSKNTLYLQMNSLRAEDTAVYYCARFPIARTSNSQSSYDGMDVWGQGTLVTVSS VL: QSVLTQPPSASGTPGQRVTISCSGSSSNIGSNAVSWYQQLPGTAPKLLIYADNKRPSGVPDRFSGSKSGTSASLAISGLRSEDEADYYCGAWDSSLNAYVFGGGTKLTVL | 2.22 | 1.4
K202.A (bispecific antibody) heavy: EVQLLESGGGLVQPGGSLRLSCAASGFTFSDYAMSWVRQAPGKGLEWVSWIYSGSGNKYYADSVKGRFTISRDNSKNTLYLQMNSLRAEDTAVYYCARFPIARTSNSQSSYDGMDVWGQGTLVTVSSASTKGPSVFPLAPCSRSTSESTAALGCLVKDYFPEPVTVSWNSGALTSGVHTFPAVLQSSGLYSLSSVVTVPSSSLGTKTYTCNVDHKPSNTKVDKRVESKYGPPCPPCPPCPAPEFLGGPSVFLFPPKPKDTLMISRTPEVTCVVVDVSQEDPEVQFNWYVDGVEVHNAKTKPREEQFNSTYRVVSVLTVLHQDWLNGKEYKCKVSNKGLPSSIEKGQPREPQVYTLPPSQEEMTKNQVSLTCLVKGFYPSDIAVEWESNGQPENNYKTTPPVLDSDGSFFLYSRLTVDKSRWQEGNVFSCSVMHEALHNHYTQKSLSLSLGK light: QSVLTQPPSASGTPGQRVTISCSGSSSNIGSNAVSWYQQLPGTAPKLLIYADNKRPSGVPDRFSGSKSGTSASLAISGLRSEDEADYYCGAWDSSLNAYVFGGGTKLTVLVAAPSVFIFPPSDEQLKSGTASVVCLLNNFYPREAKVQWKVDNALQSGNSQESVTEQDSKDSTYSLSSTLTLSKADYEKHKVYACEVTHQGLSSPVTKSFNRGEC scFv: EVQLLESGGGLVQPGGSLRLSCAASGFTFSSYDMSWVRQAPGKGLEWVSGISYSGGSTYYADSVKGRFTISRDNSKNTLYLQMNSLRAEDTAVYYCARDVNFVPLVTFDYWGQGTLVTVSSGGGGSGGGGSGGGGSQSVLTQPPSASGTPGQRVTLSCTGSSSNIGSNSVTWYQQLPGTAPKLLIYDDNQRPSGVPDRFSGSKSGTSASLAISGLRSEDEADYYCGTWDYSLSAYVFGGGTKLTVL | 0.39 | –
K202.B (bispecific antibody) heavy: EVQLLESGGGLVQPGGSLRLSCAASGFTFSDYAMSWVRQAPGKGLEWVSWIYSGSGNKYYADSVKGRFTISRDNSKNTLYLQMNSLRAEDTAVYYCARFPIARTSNSQSSYDGMDVWGQGTLVTVSSASTKGPSVFPLAPCSRSTSESTAALGCLVKDYFPEPVTVSWNSGALTSGVHTFPAVLQSSGLYSLSSVVTVPSSSLGTKTYTCNVDHKPSNTKVDKRVESKYGPPCPPCPPCPAPEFLGGPSVFLFPPKPKDTLMISRTPEVTCVVVDVSQEDPEVQFNWYVDGVEVHNAKTKPREEQFNSTYRVVSVLTVLHQDWLNGKEYKCKVSNKGLPSSIEKGQPREPQVYTLPPSQEEMTKNQVSLTCLVKGFYPSDIAVEWESNGQPENNYKTTPPVLDSDGSFFLYSRLTVDKSRWQEGNVFSCSVMHEALHNHYTQKSLSLSLGK light: QSVLTQPPSASGTPGQRVTISCSGSSSNIGSNAVSWYQQLPGTAPKLLIYADNKRPSGVPDRFSGSKSGTSASLAISGLRSEDEADYYCGAWDSSLNAYVFGGGTKLTVLVAAPSVFIFPPSDEQLKSGTASVVCLLNNFYPREAKVQWKVDNALQSGNSQESVTEQDSKDSTYSLSSTLTLSKADYEKHKVYACEVTHQGLSSPVTKSFNRGEC scFv: EVQLLESGGGLVQPGGSLRLSCAASGFTFSSYDMSWVRQAPGKGLEWVSGISYSGGSTYYADSVKGRFTISRDNSKNTLYLQMNSLRAEDTAVYYCARDVNFVPLVTFDYWGQGTLVTVSSGGGGSGGGGSGGGGSQSVLTQPPSASGTPGQRVTLSCTGSSSNIGSNSVTWYQQLPGTAPKLLIYDDNQRPSGVPDRFSGSKSGTSASLAISGLRSEDEADYYCGTWDYSLSAYVFGGGTKLTVL | 0.12 | –

From patent publication US20240043508A1
